Laboratory results published in patent publication US20240252614A1 (Pfizer, published 2024).

Assays:
[1] = biological target: T1, PIV1 F literature prefusion comparison (PIV1); assay: BLI, 53C stress
T1 construct: F113G, F114S, A466I, S473I (Stewart-Jones et al. 2018)
Procedure: (§1) The OCTET HTX (Sartorius, Gottingen, Germany) instrument was used to evaluate the expression and conformational integrity for each mutant. All measurements were conducted at 30° C. temperature in 96-well black plates (Corning, Corning, NY) with a final volume of 240 μL per well at a constant agitation rate of 1000 RPM.
(§2) Conformation integrity of PIV1 F protein mutants were evaluated by a thermal stress experiment. Crude cell culture supernatants were normalized based on the results of the titer quantitation and then incubated for 1 hour at room temperature and two higher temperatures. For the initial testing of PIV1 mutants, the two temperatures were 50° C. and 53° C. […] Anti-Human IgG Fc Capture (AHC) biosensors were first equilibrated in PB for before being dipped into more PB to establish the initial baseline. […] The mAb-bound biosensors were then dipped into the thermal stresses cell culture supernatants for 5 minutes.

PIV1058 [2] = biological target: T2, PIV1058 (PIV1); assay: BLI, 53C stress
T2 construct: A466L, S473L, Q92A, G134A
Procedure: as §1, §2

PIV1055 = biological target: T3, PIV1055 (PIV1); assay: BLI, 53C stress
T3 construct: A466L, S473L, G134A
Procedure: as §1, §2

PIV1057 [3] = biological target: T4, PIV1057 (PIV1); assay: BLI, 53C stress
T4 construct: A466L, S473L, A480L, Q92A, G134A
Procedure: as §1, §2

PIV1064 [4] = biological target: T5, PIV1064 (PIV1); assay: BLI, 53C stress
T5 construct: F113G, F114S, Q92C-G134C, A466I, S473I, A480L
Procedure: as §1, §2

PIV1062 [5] = biological target: T6, PIV1062 (PIV1); assay: BLI, 53C stress
T6 construct: F113G, F114S, A466L, S473L, A480L, Q92A, G134L
Procedure: as §1, §2

PIV1047 [6] = biological target: T7, PIV1047 (PIV1); assay: BLI, 53C stress
T7 construct: F113G, F114S, Q92C-G134C, A466L, S473L, A480L
Procedure: as §1, §2

PIV1053 [7] = biological target: T8, PIV1053 (PIV1); assay: BLI, 53C stress
T8 construct: F113G, F114S, A466L, S473L, A480L, G134A
Procedure: as §1, §2

PIV1050 [8] = biological target: T9, PIV1050 (PIV1); assay: BLI, 53C stress
T9 construct: F113G, F114S, Q92C-G134C, A466V, S473V, A480V
Procedure: as §1, §2

PIV1059 [9] = biological target: T10, PIV1059 (PIV1); assay: BLI, 53C stress
T10 construct: F113G, F114S, A466L, S473L, A480L, G134A, Q92L
Procedure: as §1, §2

PIV1061 [10] = biological target: T11, PIV1061 (PIV1); assay: BLI, 53C stress
T11 construct: Q92L, G134A, A466L, S473L
Procedure: as §1, §2

PIV1065 [11] = biological target: T12, PIV1065 (PIV1); assay: BLI, 53C stress
T12 construct: F113G, F114S, Q92C-G134C, A466I, S473I
Procedure: as §1, §2

PIV1066 [12] = biological target: T13, PIV1066 (PIV1); assay: BLI, 53C stress
T13 construct: A466I, S473I, A480L, Q92L, G134A
Procedure: as §1, §2

PIV1048 [13] = biological target: T14, PIV1048 (PIV1); assay: BLI, 53C stress
T14 construct: Q92C-G134C, A466L, S473L, A480L
Procedure: as §1, §2

PIV1068 [14] = biological target: T15, PIV1068 (PIV1); assay: BLI, 53C stress
T15 construct: A466I, S473I, A480I, Q92L, G134A
Procedure: as §1, §2

PIV1054 [15] = biological target: T16, PIV1054 (PIV1); assay: BLI, 53C stress
T16 construct: A466L, S473L, A480L, G134A
Procedure: as §1, §2

PIV1049 [16] = biological target: T17, PIV1049 (PIV1); assay: BLI, 53C stress
T17 construct: Q92C-G134C, A466L, S473L
Procedure: as §1, §2

PIV1052 = biological target: T18, PIV1052 (PIV1); assay: BLI, 53C stress
T18 construct: Q92C-G134C, A466V, S473V; also called PV1052
Procedure: as §1, §2

PIV1067 [17] = biological target: T19, PIV1067 (PIV1); assay: BLI, 53C stress
T19 construct: F113G, F114S, Q92C-G134C, A466I, S473I, A480I
Procedure: as §1, §2

PIV1060 [18] = biological target: T20, PIV1060 (PIV1); assay: BLI, 53C stress
T20 construct: Q92L, G134A, A466L, S473L, A480L
Procedure: as §1, §2

[19] = biological target: T1, PIV1 F literature prefusion comparison; assay: BLI, no stress
Procedure: as §1, §2

PIV1058 [20] = biological target: T2, PIV1058; assay: BLI, no stress
Procedure: as §1, §2

PIV1051 = biological target: T21, PIV1051 (PIV1); assay: BLI, no stress
T21 construct: Q92C-G134C, A466V, S473V, A480V
Procedure: as §1, §2

PIV1057 [21] = biological target: T4, PIV1057; assay: BLI, no stress
Procedure: as §1, §2

PIV1064 [22] = biological target: T5, PIV1064; assay: BLI, no stress
Procedure: as §1, §2

PIV1062 [23] = biological target: T6, PIV1062; assay: BLI, no stress
Procedure: as §1, §2

PIV1047 [24] = biological target: T7, PIV1047; assay: BLI, no stress
Procedure: as §1, §2

PIV1053 [25] = biological target: T8, PIV1053; assay: BLI, no stress
Procedure: as §1, §2

PIV1050 [26] = biological target: T9, PIV1050; assay: BLI, no stress
Procedure: as §1, §2

PIV1059 [27] = biological target: T10, PIV1059; assay: BLI, no stress
Procedure: as §1, §2

PIV1061 [28] = biological target: T11, PIV1061; assay: BLI, no stress
Procedure: as §1, §2

PIV1065 [29] = biological target: T12, PIV1065; assay: BLI, no stress
Procedure: as §1, §2

PIV1066 [30] = biological target: T13, PIV1066; assay: BLI, no stress
Procedure: as §1, §2

PIV1048 [31] = biological target: T14, PIV1048; assay: BLI, no stress
Procedure: as §1, §2

PIV1068 [32] = biological target: T15, PIV1068; assay: BLI, no stress
Procedure: as §1, §2

PIV1054 [33] = biological target: T16, PIV1054; assay: BLI, no stress
Procedure: as §1, §2

PIV1049 [34] = biological target: T17, PIV1049; assay: BLI, no stress
Procedure: as §1, §2

PIV1063 = biological target: T22, PIV1063 (PIV1); assay: BLI, no stress
T22 construct: A466L, S473L, A480L, Q92A, G134L
Procedure: as §1, §2

PIV1067 [35] = biological target: T19, PIV1067; assay: BLI, no stress
Procedure: as §1, §2

PIV1056 = biological target: T23, PIV1056 (PIV1); assay: BLI, no stress
T23 construct: F113G, F114S, A466L, S473L, A480L, Q92A, G134A
Procedure: as §1, §2

PIV1060 [36] = biological target: T20, PIV1060; assay: BLI, no stress
Procedure: as §1, §2
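Also: binding of thermally stressed PIV1 F mutant supernatant to mAb on AHC biosensors for 5 min.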

B1: PIV1-8 mAb (antibody, V domains shown)
VH: QVQLVQSGAEVKKPGSSVKVSCEASGGTFSNYVISWVRQAPGQGLEWMGGIIPVFATAKYAQKFQGRVTIIADQSTNTAYLELSSLRSDDTAVYFCASVDSGGTWWDAFAIWGQGTMVTVSS
VL: QAVVTQPRSVSGSPGQAVTISCTGTSSDVGGYNYVSWYQHHPGKAPKLIIYDVTKRPSGVPDRFSGSKSGNTASLTISGLQTEYEADYYCCSYAGSYTLVFGGGTKLTVLG
notes: human IgG1; also called hPIV1-8 mAb; hPIV1-8
Response Shift [1]: 0.646 nm | Response Shift (PIV1058 [2]): 0.704 nm | Response Shift (PIV1055): 0.787 nm | Response Shift (PIV1057 [3]): 0.808 nm | Response Shift (PIV1064 [4]): 0.897 nm | Response Shift (PIV1062 [5]): 0.714 nm | Response Shift (PIV1047 [6]): 0.862 nm | Response Shift (PIV1053 [7]): 0.901 nm | Response Shift (PIV1050 [8]): 0.907 nm | Response Shift (PIV1059 [9]): 0.903 nm | Response Shift (PIV1061 [10]): 0.648 nm | Response Shift (PIV1065 [11]): 0.816 nm | Response Shift (PIV1066 [12]): 0.722 nm | Response Shift (PIV1048 [13]): 0.783 nm | Response Shift (PIV1068 [14]): 0.65 nm | Response Shift (PIV1054 [15]): 0.826 nm | Response Shift (PIV1049 [16]): 0.883 nm | Response Shift (PIV1052): -0.026 nm | Response Shift (PIV1067 [17]): 0.896 nm | Response Shift (PIV1060 [18]): 0.671 nm | Response Shift [19]: 0.709 nm | Response Shift (PIV1058 [20]): 0.688 nm | Response Shift (PIV1051): 0.725 nm | Response Shift (PIV1057 [21]): 0.718 nm | Response Shift (PIV1064 [22]): 0.912 nm | Response Shift (PIV1062 [23]): 0.619 nm | Response Shift (PIV1047 [24]): 0.79 nm | Response Shift (PIV1053 [25]): 0.857 nm | Response Shift (PIV1050 [26]): 0.848 nm | Response Shift (PIV1059 [27]): 0.841 nm | Response Shift (PIV1061 [28]): 0.619 nm | Response Shift (PIV1065 [29]): 0.809 nm | Response Shift (PIV1066 [30]): 0.642 nm | Response Shift (PIV1048 [31]): 0.737 nm | Response Shift (PIV1068 [32]): 0.628 nm | Response Shift (PIV1054 [33]): 0.764 nm | Response Shift (PIV1049 [34]): 0.636 nm | Response Shift (PIV1063): -0.116 nm | Response Shift (PIV1067 [35]): 0.849 nm | Response Shift (PIV1056): 0.739 nm | Response Shift (PIV1060 [36]): 0.584 nm
